Measurements: US20220008464A1

Target: TGFBR II (UniProt P37173)
Assay: cell-based or functional assay

TGFBR II, sequence (P37173 23-567): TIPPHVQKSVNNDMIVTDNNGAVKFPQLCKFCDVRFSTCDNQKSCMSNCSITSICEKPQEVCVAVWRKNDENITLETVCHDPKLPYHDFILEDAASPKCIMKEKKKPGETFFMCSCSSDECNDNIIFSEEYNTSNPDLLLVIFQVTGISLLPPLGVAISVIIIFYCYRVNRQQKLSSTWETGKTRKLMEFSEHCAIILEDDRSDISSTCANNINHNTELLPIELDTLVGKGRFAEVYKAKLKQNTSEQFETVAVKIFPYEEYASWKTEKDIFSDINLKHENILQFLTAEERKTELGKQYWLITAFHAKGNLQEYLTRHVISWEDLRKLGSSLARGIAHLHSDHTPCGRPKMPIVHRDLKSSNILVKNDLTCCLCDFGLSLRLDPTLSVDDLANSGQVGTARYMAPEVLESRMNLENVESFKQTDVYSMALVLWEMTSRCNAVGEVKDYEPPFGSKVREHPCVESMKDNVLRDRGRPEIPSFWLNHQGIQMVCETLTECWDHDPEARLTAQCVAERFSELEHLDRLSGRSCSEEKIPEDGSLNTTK

decrease in release of IL-2 and IFN-γ by P4-CAR-T cells with 5 ng/ml TGFβ1: 50%
Substance: TGFβ1 (from UniProt P01137 279-390) (ligand)
